According to article doi:10.1101/2023.06.15.543498:

biological target: E. coli 70S ribosomes without a bound tRNA (E. coli (endogenous in strain MRE600)) (UniProt P0A7L0); assay: populations of particle classes in cryo-EM samples

Row | Substance | Kd
1 | EQ2-YheS (hydrolysis-deficient EQ2 mutant of E. coli YheS) (from UniProt P63389 1-637) (enzyme) | > 19 µM
2 | EQ2-Uup (hydrolysis-deficient EQ2 mutant of E. coli Uup) (from UniProt P43672 1-635) (enzyme) | > 12 µM
3 | EQ2-EttA (hydrolysis-deficient EQ2 mutant of E. coli EttA, Energy-dependent translation throttle A) (from UniProt P0A9W3 1-555) (enzyme) | 62 µM
4 | EQ2-YbiT (hydrolysis-deficient EQ2 mutant of E. coli YbiT) (from UniProt P0A9U3 1-530) (enzyme) | 1.2 µM
